According to patent US20050065080A1, “Use of leptin in fertility” (priority 2001, published 2005):

How the values were obtained:
[1] = system: ob/ob mice; assay: Follicular development in antide-treated ob/ob mice (hematoxylin-eosin ovarian sections); type: in vivo, mouse; conditions: for follicular growth in ovarian sections: single agent
Protocol: The effect of leptin in follicular development was studied in ob/ob mice that were treated with the GnRH antagonist antide (Phillips et al. 1988). It is therefore expected that following administration of leptin to antide treated mice, as opposed to non-treated mice, release of LH or FSH from the pituitary gland will not occur.
8-10 week-old obese C57B1-ob/ob female mice were all injected (time 0) with antide (1.25 μg/g body weight). Mice were divided into several groups. A control group was injected with saline only. A second group was injected with murine leptin (ip,2×5 μg/g body weight purchased from R&D systems) at times 0 and 9 h. A third group was injected with pregnant mare serum gonadotropins (PMSG, 3 IU/mice, sc). A fourth group received a combination of both PMSG and leptin. Mice were sacrificed at 9, 24, and 48 and 72 h following the first treatment, the ovaries were excised, paraffin-fixed and stained with hematoxylin-eosin to visualize follicular and ovarian growth.

[2] = system: C57BL/6 mice; assay: Ovulation induction in antide-treated prepubertal C57BL/6 mice (oocyte count); type: in vivo, mouse; conditions: for Oocyte count in C57BL/6 mice: antide-treated, PMSG at 0 h, leptin or hCG at 48 h, oocytes counted at 72 h, range
Protocol: (§1) In the present example, ovulation was studied in ob/ob mice and in prepubertal C57BL/6 mice. All mice were treated with antide to prevent induction of LH by leptin. […] Following the various treatments, mice were sacrificed and oocytes were collected from the ampoule at 72 hours from the first injection and counted.
(§2) Similarly a group of ob/ob mice were injected with PMSG (3 IU/animal) and after 48 h with leptin (2×5 μg/g weight). […] Ovulation was monitored by counting oocytes in the oviducts under the microscope.

[3] = system: LH; assay: Serum LH radioimmunoassay in antide-treated mice; type: in vivo, mouse
Protocol: Leptin induces the GnRH release from the Hypothalamus, which in turn releases FSH and LH from the Pituitary glands (Yu et al. 1997). To test if the follicle development and ovulation induced in the antide-treated C57BL mice and ob/ob mice by leptin is mediated by LH release, serum LH as well as progesterone, which is an LH-induced marker was measured. Measurement of plasma murine LH (mLH) and progesterone were carried out with specific radioimmunoassays. Progesterone was determined in mouse sera by RIA (Kohen 1975). LH was determined in mouse by a specific RIA, obtained trough the National Hormone & Pituitary Program, harbor-UCLA Medical Center (Torrance, California). The levels of mLH were below 0.2 ng/ml in all cases (Table 2). The levels of LH remained low throughout the follicular growth and ovulation in leptin-treated mice. However, it is difficult to detect the LH surge even in positive controls. Therefore, measurement of the LH-induced serum progesterone serve as a more reliable marker of circulating LH.

[4] = system: uterus; assay: Appearance of the uterus in treated mice; type: in vivo, mouse; conditions: for uterus distension and hyperemia: after PMSG, or PMSG followed by hCG or leptin, leptin: ob/ob mice that ovulated
[5] = system: ob/ob mice; assay: Ovulation induction in antide-treated ob/ob mice (oocyte count); type: in vivo, mouse; conditions: for Oocyte count in ob/ob mice: antide-treated, PMSG at 0 h, leptin or hCG at 48 h, oocytes counted at 72 h, range
Protocol: as §1, §2

[6] = system: progesterone; assay: Serum progesterone radioimmunoassay in ob/ob and C57BL/6 mice; type: in vivo, mouse; conditions: PMSG at time 0, agent at 48 h, RIA at 72 h; FIG. 1
Protocol: Mice were treated with PMSG at time 0 and the indicated agent at 48 h. Progesterone was determined by RIA at 72 h in sera of C57BL/6 mice (grey bars) and of ob/ob mice (open bars).

[7] = system: ADAMTS-1; assay: ADAMTS-1 expression in cultured pre-ovulatory follicles (quantitative RT-PCR); type: cell-based, mouse; conditions: 17 h; leptin 250 ng/ml or hCG 1 IU; normalized to ribosomal protein L19; FIG. 2
Protocol: Pre-ovulatory follicles were removed, cultured and further treated for 17 h in the absence or presence of either leptin (250 ng/ml) or hCG (1 IU). Total RNA was isolated from the follicles and subjected to quantitative RT-PCR using the LightCycler™ (Roche diagnostics). The primers used for the detection of murine ADAMTS-1 transcripts were:

[8] = system: Cathepsin L; assay: Cathepsin L expression in cultured pre-ovulatory follicles (quantitative RT-PCR); type: cell-based, mouse; conditions: 17 h; not statistically significant
Excerpt: Total RNA was isolated from the follicles and subjected to quantitative RT-PCR with specific primers for two proteases, ADAMTS-1 and Cathepsin L. The PCR products were resolved in agarose gel electrophoresis and scanned. The RNAs levels of ADAMTS-1 were normalized to the RNAs levels of ribosomal protein
To test whether leptin can induce the expression of ADAMTS-1 and cathepsin L by acting directly on the ovary, in vitro experiments were preformed on pre-ovulatory follicles obtained from 21 days old C57BL/6 mice treated with PMSG (3 IU/animal) for 48 h. […] Total RNA was isolated from the follicles and subjected to quantitative RT-PCR using the LightCycler™ (Roche diagnostics). The primers used for the detection of murine ADAMTS-1 transcripts were: […]
The RNAs levels of ADAMTS-1 and cathepsin L detected in agarose gel electrophoresis of the PCR products were normalized to the RNAs levels of murine ribosomal protein L19

[9] = antide + PMSG (48 h) then leptin or hCG (24 h)

## antide [reference compound]
[1]; antide-treated ob/ob mice
  follicular growth in ovarian sections: only early stages of follicular growth
[2]
  Oocyte count in C57BL/6 mice: 0
[3]; antide-treated mice, 72 h
  Serum LH: 0.04 ± 0.01 ng/mL

## pregnant mare serum gonadotropins [PMSG, reference compound]
[4]
  uterus distension and hyperemia: maximal distension
[5]
  Oocyte count in ob/ob mice: 0 oocytes per mouse
[1]; antide-treated ob/ob mice
  follicular growth in ovarian sections: large antral follicles were formed at 72 h
[2]
  Oocyte count in C57BL/6 mice: 0
[3]; antide + PMSG, 60 h
  Serum LH: 0.2 ng/mL
[3]; antide-treated mice, 72 h
  Serum LH: 0.09 ± 0.01 ng/mL

B1: leptin (protein, UniProt P41160 22-167, looked up)
Leptin: VPIQKVQDDTKTLIKTIVTRINDISHTQSVSAKQRVTGLDFIPGLHPILSLSKMDQTLAVYQQVLTSLPSQNVLQIANDLENLRDLLHLLAFSKSCSLPQTSGLQKPESLDGVLEASLYSTEVVALSRLQGSLQDILQQLDVSPEC
notes: murine leptin purchased from R&D systems; adipocyte-secreted protein encoded by the obese (ob) gene
[4]
  uterus distension and hyperemia: remained hyperemic, exhibiting maximal distension
[4]; antide-treated C57BL/6 mice
  uterine features: same uterine features, were also observed
[4]; leptin in the absence of PMSG
  uterus hyperemia: rendered the uterus hyperemic
[5]; PMSG then agent at 48 h, summary of Table 1
  ovulation (oocytes in the oviducts): ovulation was observed
[5]; [9]
  mice ovulated, ob/ob mice: 3 out of 5 mice ovulated
[5]
  Oocyte count in ob/ob mice: (range 1-6 oocytes per oocytes per mouse
[6]
  serum progesterone: lack of significant progesterone synthesis
[1]; antide-treated ob/ob mice, concomitant PMSG and leptin, after 72 h
  ovarian growth: an interstitial cell growth and further ovarian growth were observed
[1]; antide-treated ob/ob mice, as early as
  time at which large follicles could be observed after initiation of treatment: 9 h
[1]; antide-treated ob/ob mice
  follicular growth in ovarian sections: induced rapid follicular growth
[1]; ob/ob mice, PMSG at time 0 and leptin instead of hCG at 48 h, seen at 72 h
  corpora lutea in the ovaries: corpora lutea were also seen
[2]; [9]
  mice ovulated, C57BL/6 mice: 7 out of 7 mice
[2]
  Oocyte count in C57BL/6 mice: (2-7)
[7]
  induction of ADAMTS-1 RNA: significant induction
[3]; antide + PMSG 48 h then leptin 12 h
  Serum LH: 0.17 ± 0 ng/mL
[3]; antide + PMSG 48 h then leptin 24 h
  Serum LH: 0.057 ± 0.01 ng/mL
[3]; antide + leptin, 9 h
  Serum LH: 0.05 ng/mL
[3]; antide + leptin, 24 h
  Serum LH: 0.06 ± 0.01 ng/mL
[3]; antide + leptin, 48 h
  Serum LH: 0.07 ± 0.04 ng/mL
[3]; antide-treated mice, 72 h
  Serum LH: 0.04 ± 0.01 ng/mL
[8]
  induction of Cathepsin L RNA: Marginal induction
